These results are taken from PMC4817975 (PLoS ONE, 2016).

In assay [1] the target is T1, Human kappa opioid receptor (KOR) (Homo sapiens, UniProt P41145).
T1 construct: made in house; host or cells: Pichia pastoris
In words: Time-resolved SPA stability assay of high-affinity [3H]-DPN binding. The note with it: for τ1, exponential time constant: exponential decay fit; for N1, initial active receptor population: exponential decay fit (single for DDM, double for Nanodiscs). The method, then: All procedures were performed on ice or at 4°C until assay counting was initiated at room temperature (23°C). Time-resolved stability assay with detergent-extracted MPs was carried out directly after solubilization in binding buffer I (20 mM Tris-HCl, pH 7.4, 500 mM NaCl, 5% glycerol, 1 mM PMSF, 0.1 mM TCEP, 0.4% BSA). Solubilized proteins were diluted in the assay resulting in a final concentration of 0.1% DDM in the assay buffer. Stability assays performed with KOR reconstituted in Nanodiscs were done in binding buffer II (20 mM Tris-HCl pH 7.4, 100 mM NaCl pH 7.4, 0.4% BSA). KOR/Nanodisc samples were added at quantities corresponding to approximately 30 fmol/well. Samples were mixed with 0.5 mg/well yttrium silicate (YSi) streptavidin coated SPA beads (Perkin Elmer) in binding buffer and a final concentrations of 10 nM [^3H]-DPN (42.3 Ci/mmol, Perkin Elmer) in a total volume of 200 μl. In parallel, the non-specific binding was measured including 50 μM naloxone in the assay. All measurements were performed in triplicates in a white-wall clear-bottom 96-well plate (Wallac). The assay was gently shaken on a vibrating platform at 4°C for 1.5 hours to equilibrate ligand binding and immobilization of receptors on the SPA beads. After incubation the assay was counted with a liquid scintillation counter (Wallac Microbeta TriLux 1450, SPA cpm mode) repeatedly with 17 min between measurements at room temperature. As a control, the same assay conditions as described above were performed at RT and bound and free radioligands were separated at specific time points on Sephadex G-50 gravity-flow columns (GE Healthcare) equilibrated in binding buffer. After applying 50 μl of samples, columns were centrifuged for 2 min at 1000 x g. Separated samples were mixed with scintillation liquid and incubated for 1 hour at RT, before counting on a liquid scintillation counter. As data analysis, specific binding was normalized to the initial binding at time zero, corresponding to initiation of assay counting at RT. The half-life of high-affinity ligand binding was calculated from fitting to single or double exponential decay functions in Igor Pro 6.1.

Assay [2] addresses T1, Human kappa opioid receptor (KOR). In words: Radioligand filter binding assay (saturation), KOR in P. pastoris membranes. The note with it: one-site model, read-out: KD, P.Pastoris membrane. How it is done:
Specific ligand binding to KOR in P. pastoris membranes was measured by radioligand filter binding assay. Isolated P. pastoris membranes were diluted in binding buffer (50 mM Tris-HCl pH 7.4, 0.5 M NaCl, 1mg/ml BSA) and mixed in triplicates with radioligand [^3H]-diprenorpine (DPN, 42.3 Ci/mmol, Perkin Elmer) in concentrations varying from 0.08 to 10 nM in a 96 well plate (MultiScreen HTS-FC 1.2/0.65 μm glass fiber filter), which was pre-wetted in washing buffer (50 mM Tris-HCl buffer, pH 7.4). Non-specific binding was measured in parallel by including 50 μM naloxone. For each binding experiment, membranes corresponding to 3–5 μg/well were used keeping the ratio of bound radioligand <10% of the total added radioligand. The assay mixture was incubated for 2 h at room temperature. To separate bound from free ligands, the plate was rapidly filtrated and washed four times with 100 μl ice-cold washing buffer. Scintillation liquid (Ultima Gold XR, Perkin Elmer) was added to the wells and the assay was counted by a liquid scintillation counter (Wallac Microbeta TriLux 1450). Specific binding was calculated and KD was measured from saturation curves fitted to a one-site binding model using Igor Pro 6.1.

Assay [3] concerns the target T2, Human kappa opioid receptor (KOR) reconstituted in Nanodiscs (Homo sapiens, UniProt P41145).
T2 construct: made in house; host or cells: Pichia pastoris (KOR)
The note with it: SPA saturation binding, one-site model. The method, then:
In parallel non-specific binding was measured in the presence of 50 μM naloxone. […] Therefore, saturation and inhibition binding assays were performed with reduced SPA beads/well; 0.25 mg/well of streptavidin-coated SPA YSI beads. […] Ki was measured from the IC50 value.

Another assay addresses KOR. On the set-up: method as in PMID 22437504, PMID 15956349. As to conditions: literature value; cited from earlier work.
Setting [4] is: 10 nM [3H]-DPN, 23°C, double exponential fit.

Like-named read-outs stand apart in the source and are kept apart here. A value given as a limit tells only on which side of the number the result lay.

T1 sequence (P41145 whole entry): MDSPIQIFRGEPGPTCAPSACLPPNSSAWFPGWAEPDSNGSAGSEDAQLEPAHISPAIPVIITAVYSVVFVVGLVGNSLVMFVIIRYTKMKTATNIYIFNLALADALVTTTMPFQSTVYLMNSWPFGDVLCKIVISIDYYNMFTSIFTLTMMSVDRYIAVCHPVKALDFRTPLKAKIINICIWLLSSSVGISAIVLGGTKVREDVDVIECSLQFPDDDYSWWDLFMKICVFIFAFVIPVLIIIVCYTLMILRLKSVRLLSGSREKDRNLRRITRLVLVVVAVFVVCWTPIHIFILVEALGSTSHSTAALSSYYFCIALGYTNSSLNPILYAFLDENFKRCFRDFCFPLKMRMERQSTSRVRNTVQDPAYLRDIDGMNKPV
T2 sequence (P41145 whole entry): as above

Take “KOR in DDM micelles: human kappa opioid receptor solubilized in DDM/CHS, 0.1%/0.02% in the assay”: in assay [1] (10 nM [3H]-DPN, 23°C), the “τ1, exponential time constant” value was 0.4 ± 0.01 h and the “N1, initial active receptor population” value amounted to 97.4 ± 1.5%. Besides, in assay [1] (room temperature (23°C), 10 nM [3H]-DPN), the “time to complete loss of ligand binding activity” value was ≤ 100 min.

In the case of “KOR in Nanodiscs: human kappa opioid receptor reconstituted in MSP1E3D1 Nanodiscs with POPC:POPG 3:2”, in assay [1] (setting [4]), the “N2, initial active receptor population (slow component)” value amounted to 68.9 ± 0.7% and the “τ2, exponential time constant” value was 36.8 ± 1.6 h. In addition, the “N2, initial active receptor population (slow component)” value in assay [1] (10 nM [3H]-DPN, 23°C, double exponential fit, listed as KOR reconstituted in Nanodiscs) is given as 68.9%. Moreover, in assay [1] (10 nM [3H]-DPN, 23°C), the “τ1, exponential time constant” value was determined as 1.2 ± 0.1 h and the “N1, initial active receptor population” value is 29.4 ± 0.8%. The “ligand binding relative to the initial activity after 100 minutes” value in assay [1] (after counting for 100 minutes at room temperature, n = 5) came out at 73.5 ± 2.5%. Besides, the “stability improvement (Taverage in Nanodiscs vs half-life in DDM micelles)” value in assay [1] (from fitted curves) is on record as “approximately 70 fold”.

One may read the Kd as the concentration at which binding is half-saturated. For the substance diprenorpine [[3H]-DPN], the Kd in assay [2] (listed as [^3H]-DPN) was 0.94 ± 0.14 nM; in assay [2], 0.9 ± 0.1 nM; in assay [3], 0.8 ± 0.2 nM; in assay [3] (listed as [^3H]-DPN), 0.84 ± 0.15 nM; at KOR it was 0.8 nM.
